Experimental data from patent publication US20160297857A1.

target: PA1b-binding site; assay: ligand binding assay with 125I-labeled toxin

| Binder | Ki |
| --- | --- |
| AKCGEACDTQFNFCNAGDGCRCFITDAYLTLPGFCAQLST [AS40] | 10.3 nM |
| DECWGPCSVLQTPPCPLSKCYCIPLFLVVGYCSHASS [DS37] | 694 nM |
| EFCSSVGSFCSPFNTNPCGYLGNCRCVPYYLYGGTCENPFG [EG41] | 72.8 nM |
| ASCNGVCSPFEMPPCGTSACRCIPVGLVIGYCRNPSG [PA1b polypeptide of Pisum sativum] | 17 nM |
| ASCPNVGAVCSPFETKPCGNVKDCRCLPWGLFFGTCINPTG [AG41] | 1.3 nM |
| ADCSGICSPFEMPPCRSSDCRCIPIALIGGFCINPIS [AS37] | 15 nM |
